What was measured:
Assay in all cases: holdup assay
Parameters in all cases: key: below the threshold = too weak to quantify, mostly under pKd 3.1 to 4
Conditions in all cases: plain residues with an end cap or a label only (N-terminal biotin on a linker: ado-ado)
SCRIB_2, Q14160 = biological target: SCRIB_2, Q14160
APBA2_2, Q99767 = biological target: T1, APBA2_2, Q99767
T1 sequence (Q99767 654-744, limits assumed, looked up): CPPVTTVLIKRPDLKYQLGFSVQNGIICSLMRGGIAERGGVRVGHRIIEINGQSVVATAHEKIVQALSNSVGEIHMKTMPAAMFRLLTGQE

GRIP2_4, Q9C0E4 = biological target: GRIP2_4, Q9C0E4
PDZRN4_1, Q6ZMN7 = biological target: PDZRN4_1, Q6ZMN7
PICK1, Q9NRD5 = biological target: PICK1, Q9NRD5
LNX1_3, Q8TBB1 = biological target: LNX1_3, Q8TBB1
LNX1_1, Q8TBB1 = biological target: LNX1_1, Q8TBB1
Inadl_1, Q8NI35 = biological target: Inadl_1, Q8NI35
FRMPD4, Q14CM0 = biological target: FRMPD4, Q14CM0
DLG4_3, P78352 = biological target: DLG4_3, P78352
IL16_4, Q14005 = biological target: IL16_4, Q14005
MAGI1_2, Q96QZ7 = biological target: MAGI1_2, Q96QZ7
TX1BP3, O14907 = biological target: T2, TX1BP3, O14907
T2 sequence (O14907 10-122, limits assumed, looked up): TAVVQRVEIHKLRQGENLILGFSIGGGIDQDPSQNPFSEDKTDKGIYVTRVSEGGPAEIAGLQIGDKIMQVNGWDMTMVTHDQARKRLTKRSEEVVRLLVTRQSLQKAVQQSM

RADIL, Q96JH8 = biological target: T3, RADIL, Q96JH8
T3 sequence (Q96JH8 971-1071, limits assumed, looked up): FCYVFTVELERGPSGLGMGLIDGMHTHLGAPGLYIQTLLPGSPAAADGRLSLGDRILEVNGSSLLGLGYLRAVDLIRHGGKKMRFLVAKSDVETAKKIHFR

SNTB1, Q13884 = biological target: T4, SNTB1, Q13884
T4 sequence (Q13884 107-205, limits assumed, looked up): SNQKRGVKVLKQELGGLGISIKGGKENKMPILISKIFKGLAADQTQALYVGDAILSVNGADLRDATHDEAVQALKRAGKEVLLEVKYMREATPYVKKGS

GRIP1_3, Q9Y3R0 = biological target: T5, GRIP1_3, Q9Y3R0
T5 sequence (Q9Y3R0 247-346, limits assumed, looked up): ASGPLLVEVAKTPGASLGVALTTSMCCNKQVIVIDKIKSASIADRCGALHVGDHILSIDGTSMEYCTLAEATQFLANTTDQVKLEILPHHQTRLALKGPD

PDZRN3_1, Q9UPQ7 = biological target: T6, PDZRN3_1, Q9UPQ7
T6 sequence (Q9UPQ7 244-349, limits assumed, looked up): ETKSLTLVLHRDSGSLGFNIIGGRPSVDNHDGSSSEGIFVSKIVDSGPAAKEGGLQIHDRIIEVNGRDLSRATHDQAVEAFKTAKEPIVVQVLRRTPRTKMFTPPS

MAGI2_6, Q86UL8 = biological target: MAGI2_6, Q86UL8
SCRIB_3, Q14160 = biological target: SCRIB_3, Q14160
DLG4_2, P78352 = biological target: DLG4_2, P78352
LNX1_2, Q8TBB1 = biological target: LNX1_2, Q8TBB1
MAGI1_1, Q96QZ7 = biological target: MAGI1_1, Q96QZ7
Inadl_6, Q8NI35 = biological target: Inadl_6, Q8NI35
SNX27, Q96L92 = biological target: SNX27, Q96L92
GRIP1_5, Q9Y3R0 = biological target: T7, GRIP1_5, Q9Y3R0
T7 sequence (Q9Y3R0 568-668, limits assumed, looked up): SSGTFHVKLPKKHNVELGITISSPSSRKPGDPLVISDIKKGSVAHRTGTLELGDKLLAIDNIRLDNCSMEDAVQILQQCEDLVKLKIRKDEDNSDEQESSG

GORASP1, Q9BQQ3 = biological target: GORASP1, Q9BQQ3
CASK, O14936 = biological target: CASK, O14936
FRMPD3, Q5JV73 = biological target: FRMPD3, Q5JV73
MAGI2_5, Q86UL8 = biological target: MAGI2_5, Q86UL8
GRIP2_7, Q9C0E4 = biological target: GRIP2_7, Q9C0E4
Sequence of GRIP2_7, Q9C0E4 (Q9C0E4 934-1023): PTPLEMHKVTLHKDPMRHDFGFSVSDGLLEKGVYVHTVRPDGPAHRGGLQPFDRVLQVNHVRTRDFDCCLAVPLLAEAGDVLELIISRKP

Sequence of LNX1_1, Q8TBB1 (Q8TBB1 261-371): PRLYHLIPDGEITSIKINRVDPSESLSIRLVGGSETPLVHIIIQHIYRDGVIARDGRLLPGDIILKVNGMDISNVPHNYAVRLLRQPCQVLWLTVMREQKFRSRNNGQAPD
Sequence of MAGI1_2, Q96QZ7 (Q96QZ7 456-580): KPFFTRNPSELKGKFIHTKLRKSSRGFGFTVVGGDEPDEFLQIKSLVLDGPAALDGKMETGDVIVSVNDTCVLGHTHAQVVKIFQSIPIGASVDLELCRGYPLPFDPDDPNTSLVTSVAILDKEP
Sequence of MAGI1_1, Q96QZ7 (Q96QZ7 1-106): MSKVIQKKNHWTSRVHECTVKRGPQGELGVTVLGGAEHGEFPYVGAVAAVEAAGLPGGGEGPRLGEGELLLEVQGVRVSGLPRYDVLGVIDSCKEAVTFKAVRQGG
Sequence of FRMPD4, Q14CM0 (Q14CM0 67-160): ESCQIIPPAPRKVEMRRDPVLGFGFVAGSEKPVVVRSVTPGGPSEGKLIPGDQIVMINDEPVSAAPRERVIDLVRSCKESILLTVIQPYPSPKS
Sequence of FRMPD3, Q5JV73 (Q5JV73 12-100): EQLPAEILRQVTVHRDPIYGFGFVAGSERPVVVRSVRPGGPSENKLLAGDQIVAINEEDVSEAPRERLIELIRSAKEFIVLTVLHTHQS
Sequence of SCRIB_2, Q14160 (Q14160 857-960): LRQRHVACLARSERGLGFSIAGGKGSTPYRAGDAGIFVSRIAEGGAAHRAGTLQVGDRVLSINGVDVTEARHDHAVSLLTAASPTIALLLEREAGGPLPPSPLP
Sequence of SCRIB_3, Q14160 (Q14160 999-1103): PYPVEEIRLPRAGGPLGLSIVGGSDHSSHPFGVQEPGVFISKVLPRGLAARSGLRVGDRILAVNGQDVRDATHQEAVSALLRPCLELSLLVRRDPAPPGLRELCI
Sequence of DLG4_2, P78352 (P78352 155-259): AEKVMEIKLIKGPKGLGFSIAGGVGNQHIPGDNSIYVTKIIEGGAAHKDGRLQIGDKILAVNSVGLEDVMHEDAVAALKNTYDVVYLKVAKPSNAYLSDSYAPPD
Sequence of PICK1, Q9NRD5 (Q9NRD5 17-115): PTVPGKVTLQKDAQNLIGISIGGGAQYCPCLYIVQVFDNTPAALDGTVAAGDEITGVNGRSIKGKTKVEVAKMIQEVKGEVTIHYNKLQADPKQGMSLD
Sequence of CASK, O14936 (O14936 487-570): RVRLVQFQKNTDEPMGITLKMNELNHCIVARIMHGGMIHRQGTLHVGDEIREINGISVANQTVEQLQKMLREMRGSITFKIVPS
Sequence of LNX1_3, Q8TBB1 (Q8TBB1 500-596): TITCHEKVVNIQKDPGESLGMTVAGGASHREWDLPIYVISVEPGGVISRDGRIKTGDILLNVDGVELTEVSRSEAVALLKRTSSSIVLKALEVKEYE
Sequence of LNX1_2, Q8TBB1 (Q8TBB1 371-470): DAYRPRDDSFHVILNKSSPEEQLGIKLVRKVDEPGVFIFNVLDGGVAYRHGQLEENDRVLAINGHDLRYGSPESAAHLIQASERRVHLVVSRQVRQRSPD
Sequence of Inadl_1, Q8NI35 (Q8NI35 113-229): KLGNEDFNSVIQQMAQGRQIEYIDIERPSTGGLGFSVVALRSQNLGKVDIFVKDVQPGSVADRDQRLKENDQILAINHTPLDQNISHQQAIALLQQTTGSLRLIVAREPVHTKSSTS
Sequence of MAGI2_5, Q86UL8 (Q86UL8 915-1017): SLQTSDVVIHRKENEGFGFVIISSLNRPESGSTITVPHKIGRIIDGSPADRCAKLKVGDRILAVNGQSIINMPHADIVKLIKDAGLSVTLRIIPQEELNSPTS
Sequence of DLG4_3, P78352 (P78352 306-403): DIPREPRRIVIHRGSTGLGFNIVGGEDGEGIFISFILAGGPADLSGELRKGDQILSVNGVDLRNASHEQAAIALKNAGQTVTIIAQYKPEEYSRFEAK
Sequence of MAGI2_6, Q86UL8 (Q86UL8 1141-1229): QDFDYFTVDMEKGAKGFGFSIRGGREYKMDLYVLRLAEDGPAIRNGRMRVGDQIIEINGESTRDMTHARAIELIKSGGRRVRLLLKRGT
Sequence of Inadl_6, Q8NI35 (Q8NI35 1058-1167): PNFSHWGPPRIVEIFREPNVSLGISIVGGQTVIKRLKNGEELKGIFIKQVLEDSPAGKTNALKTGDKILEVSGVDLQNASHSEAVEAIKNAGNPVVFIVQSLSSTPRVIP
Sequence of PDZRN4_1, Q6ZMN7 (Q6ZMN7 213-318): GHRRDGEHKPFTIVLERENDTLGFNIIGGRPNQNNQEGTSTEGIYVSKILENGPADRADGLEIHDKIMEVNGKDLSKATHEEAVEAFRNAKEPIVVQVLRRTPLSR
Sequence of GRIP2_4, Q9C0E4 (Q9C0E4 446-548): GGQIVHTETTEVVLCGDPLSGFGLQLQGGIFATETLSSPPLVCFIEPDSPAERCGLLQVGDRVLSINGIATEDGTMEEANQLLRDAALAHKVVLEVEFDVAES
Sequence of IL16_4, Q14005 (Q14005 1229-1329): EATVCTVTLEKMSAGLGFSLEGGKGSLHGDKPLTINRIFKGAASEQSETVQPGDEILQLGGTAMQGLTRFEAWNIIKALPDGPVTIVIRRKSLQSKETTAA
Sequence of GORASP1, Q9BQQ3 (Q9BQQ3 1-208): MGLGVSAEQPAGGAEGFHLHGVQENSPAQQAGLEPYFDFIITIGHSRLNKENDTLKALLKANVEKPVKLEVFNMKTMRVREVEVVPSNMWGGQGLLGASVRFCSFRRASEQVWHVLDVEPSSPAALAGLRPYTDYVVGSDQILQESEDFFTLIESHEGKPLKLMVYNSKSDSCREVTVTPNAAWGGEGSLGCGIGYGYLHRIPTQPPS

## SNAGNTATKA [NOSTRIN, Q8IVI9]
SCRIB_2, Q14160
  pKd: below the threshold
APBA2_2, Q99767
  pKd: below the threshold
GRIP2_4, Q9C0E4
  pKd: below the threshold
PDZRN4_1, Q6ZMN7
  pKd: below the threshold
PICK1, Q9NRD5
  pKd: below the threshold
LNX1_3, Q8TBB1
  pKd: below the threshold
LNX1_1, Q8TBB1
  pKd: below the threshold
Inadl_1, Q8NI35
  pKd: below the threshold
FRMPD4, Q14CM0
  pKd: below the threshold
DLG4_3, P78352
  pKd: 3.5
IL16_4, Q14005
  pKd: below the threshold
MAGI1_2, Q96QZ7
  pKd: below the threshold
TX1BP3, O14907
  pKd: below the threshold
RADIL, Q96JH8
  pKd: 3.57
SNTB1, Q13884
  pKd: below the threshold
GRIP1_3, Q9Y3R0
  pKd: below the threshold
PDZRN3_1, Q9UPQ7
  pKd: below the threshold
MAGI2_6, Q86UL8
  pKd: below the threshold
SCRIB_3, Q14160
  pKd: below the threshold
DLG4_2, P78352
  pKd: below the threshold
LNX1_2, Q8TBB1
  pKd: below the threshold
MAGI1_1, Q96QZ7
  pKd: below the threshold
Inadl_6, Q8NI35
  pKd: below the threshold
SNX27, Q96L92
  pKd: below the threshold
GRIP1_5, Q9Y3R0
  pKd: below the threshold
GORASP1, Q9BQQ3
  pKd: below the threshold
CASK, O14936
  pKd: below the threshold
FRMPD3, Q5JV73
  pKd: below the threshold
MAGI2_5, Q86UL8
  pKd: below the threshold
GRIP2_7, Q9C0E4
  pKd: below the threshold

## KKAPTNEFYA [SDC4, P31431]
SCRIB_2, Q14160
  pKd: below the threshold
APBA2_2, Q99767
  pKd: below the threshold
GRIP2_4, Q9C0E4
  pKd: below the threshold
PDZRN4_1, Q6ZMN7
  pKd: below the threshold
PICK1, Q9NRD5
  pKd: below the threshold
LNX1_3, Q8TBB1
  pKd: below the threshold
LNX1_1, Q8TBB1
  pKd: below the threshold
Inadl_1, Q8NI35
  pKd: below the threshold
FRMPD4, Q14CM0
  pKd: 3.49
DLG4_3, P78352
  pKd: below the threshold
IL16_4, Q14005
  pKd: below the threshold
MAGI1_2, Q96QZ7
  pKd: below the threshold
TX1BP3, O14907
  pKd: 3.85
RADIL, Q96JH8
  pKd: below the threshold
SNTB1, Q13884
  pKd: below the threshold
GRIP1_3, Q9Y3R0
  pKd: below the threshold
PDZRN3_1, Q9UPQ7
  pKd: below the threshold
MAGI2_6, Q86UL8
  pKd: below the threshold
SCRIB_3, Q14160
  pKd: below the threshold
DLG4_2, P78352
  pKd: below the threshold
LNX1_2, Q8TBB1
  pKd: below the threshold
MAGI1_1, Q96QZ7
  pKd: below the threshold
Inadl_6, Q8NI35
  pKd: below the threshold
SNX27, Q96L92
  pKd: below the threshold
GRIP1_5, Q9Y3R0
  pKd: below the threshold
GORASP1, Q9BQQ3
  pKd: below the threshold
CASK, O14936
  pKd: below the threshold
FRMPD3, Q5JV73
  pKd: 3.84
MAGI2_5, Q86UL8
  pKd: below the threshold
GRIP2_7, Q9C0E4
  pKd: below the threshold

## TKGPRGPTRV [SAPCD1, Q5SSQ6]
SCRIB_2, Q14160
  pKd: below the threshold
APBA2_2, Q99767
  pKd: below the threshold
GRIP2_4, Q9C0E4
  pKd: below the threshold
PDZRN4_1, Q6ZMN7
  pKd: 3.67
PICK1, Q9NRD5
  pKd: 4.11
LNX1_3, Q8TBB1
  pKd: below the threshold
LNX1_1, Q8TBB1
  pKd: below the threshold
Inadl_1, Q8NI35
  pKd: below the threshold
FRMPD4, Q14CM0
  pKd: below the threshold
DLG4_3, P78352
  pKd: 4.59
IL16_4, Q14005
  pKd: below the threshold
MAGI1_2, Q96QZ7
  pKd: 4.19
TX1BP3, O14907
  pKd: below the threshold
RADIL, Q96JH8
  pKd: 3.54
SNTB1, Q13884
  pKd: 4.46
GRIP1_3, Q9Y3R0
  pKd: below the threshold
PDZRN3_1, Q9UPQ7
  pKd: 4.03
MAGI2_6, Q86UL8
  pKd: below the threshold
SCRIB_3, Q14160
  pKd: 3.78
DLG4_2, P78352
  pKd: 4.53
LNX1_2, Q8TBB1
  pKd: below the threshold
MAGI1_1, Q96QZ7
  pKd: below the threshold
Inadl_6, Q8NI35
  pKd: below the threshold
SNX27, Q96L92
  pKd: 4
GRIP1_5, Q9Y3R0
  pKd: below the threshold
GORASP1, Q9BQQ3
  pKd: 3.57
CASK, O14936
  pKd: below the threshold
FRMPD3, Q5JV73
  pKd: below the threshold
MAGI2_5, Q86UL8
  pKd: below the threshold
GRIP2_7, Q9C0E4
  pKd: below the threshold

## QGPVETESVV [SLC45A4, Q5BKX6]
SCRIB_2, Q14160
  pKd: 3.67
APBA2_2, Q99767
  pKd: below the threshold
GRIP2_4, Q9C0E4
  pKd: below the threshold
PDZRN4_1, Q6ZMN7
  pKd: 3.64
PICK1, Q9NRD5
  pKd: below the threshold
LNX1_3, Q8TBB1
  pKd: below the threshold
LNX1_1, Q8TBB1
  pKd: 3.95
Inadl_1, Q8NI35
  pKd: below the threshold
FRMPD4, Q14CM0
  pKd: below the threshold
DLG4_3, P78352
  pKd: below the threshold
IL16_4, Q14005
  pKd: below the threshold
MAGI1_2, Q96QZ7
  pKd: below the threshold
TX1BP3, O14907
  pKd: 3.81
RADIL, Q96JH8
  pKd: 4.05
SNTB1, Q13884
  pKd: 4.94
GRIP1_3, Q9Y3R0
  pKd: below the threshold
PDZRN3_1, Q9UPQ7
  pKd: 3.72
MAGI2_6, Q86UL8
  pKd: 3.55
SCRIB_3, Q14160
  pKd: 3.9
DLG4_2, P78352
  pKd: 4.59
LNX1_2, Q8TBB1
  pKd: below the threshold
MAGI1_1, Q96QZ7
  pKd: below the threshold
Inadl_6, Q8NI35
  pKd: 3.57
SNX27, Q96L92
  pKd: 5.73
GRIP1_5, Q9Y3R0
  pKd: below the threshold
GORASP1, Q9BQQ3
  pKd: 3.65
CASK, O14936
  pKd: below the threshold
FRMPD3, Q5JV73
  pKd: 3.5
MAGI2_5, Q86UL8
  pKd: 4.55
GRIP2_7, Q9C0E4
  pKd: below the threshold

## SGSLKLMTTV [DACT1, Q9NYF0]
SCRIB_2, Q14160
  pKd: 3.69
APBA2_2, Q99767
  pKd: below the threshold
GRIP2_4, Q9C0E4
  pKd: below the threshold
PDZRN4_1, Q6ZMN7
  pKd: below the threshold
PICK1, Q9NRD5
  pKd: 4.09
LNX1_3, Q8TBB1
  pKd: below the threshold
LNX1_1, Q8TBB1
  pKd: 4.04
Inadl_1, Q8NI35
  pKd: below the threshold
FRMPD4, Q14CM0
  pKd: below the threshold
DLG4_3, P78352
  pKd: 4.26
IL16_4, Q14005
  pKd: below the threshold
MAGI1_2, Q96QZ7
  pKd: 5.1
TX1BP3, O14907
  pKd: 3.75
RADIL, Q96JH8
  pKd: 4.15
SNTB1, Q13884
  pKd: 3.64
GRIP1_3, Q9Y3R0
  pKd: below the threshold
PDZRN3_1, Q9UPQ7
  pKd: below the threshold
MAGI2_6, Q86UL8
  pKd: below the threshold
SCRIB_3, Q14160
  pKd: 3.59
DLG4_2, P78352
  pKd: 5.22
LNX1_2, Q8TBB1
  pKd: 3.84
MAGI1_1, Q96QZ7
  pKd: below the threshold
Inadl_6, Q8NI35
  pKd: below the threshold
SNX27, Q96L92
  pKd: 4.35
GRIP1_5, Q9Y3R0
  pKd: below the threshold
GORASP1, Q9BQQ3
  pKd: 3.56
CASK, O14936
  pKd: below the threshold
FRMPD3, Q5JV73
  pKd: below the threshold
MAGI2_5, Q86UL8
  pKd: 4.51
GRIP2_7, Q9C0E4
  pKd: below the threshold

— article PMC9482650, “Quantitative fragmentomics allow affinity mapping of interactomes” (Nature Communications, 2022)
